Test results reported in patent US20110071089A1.

How the values were obtained:
[1] = target: T1, human TRPV6b expressed in LnCaP cells (transfected with pCAGS-IRES-hTRPV6b) (human), Q9H1D0
T1 chain: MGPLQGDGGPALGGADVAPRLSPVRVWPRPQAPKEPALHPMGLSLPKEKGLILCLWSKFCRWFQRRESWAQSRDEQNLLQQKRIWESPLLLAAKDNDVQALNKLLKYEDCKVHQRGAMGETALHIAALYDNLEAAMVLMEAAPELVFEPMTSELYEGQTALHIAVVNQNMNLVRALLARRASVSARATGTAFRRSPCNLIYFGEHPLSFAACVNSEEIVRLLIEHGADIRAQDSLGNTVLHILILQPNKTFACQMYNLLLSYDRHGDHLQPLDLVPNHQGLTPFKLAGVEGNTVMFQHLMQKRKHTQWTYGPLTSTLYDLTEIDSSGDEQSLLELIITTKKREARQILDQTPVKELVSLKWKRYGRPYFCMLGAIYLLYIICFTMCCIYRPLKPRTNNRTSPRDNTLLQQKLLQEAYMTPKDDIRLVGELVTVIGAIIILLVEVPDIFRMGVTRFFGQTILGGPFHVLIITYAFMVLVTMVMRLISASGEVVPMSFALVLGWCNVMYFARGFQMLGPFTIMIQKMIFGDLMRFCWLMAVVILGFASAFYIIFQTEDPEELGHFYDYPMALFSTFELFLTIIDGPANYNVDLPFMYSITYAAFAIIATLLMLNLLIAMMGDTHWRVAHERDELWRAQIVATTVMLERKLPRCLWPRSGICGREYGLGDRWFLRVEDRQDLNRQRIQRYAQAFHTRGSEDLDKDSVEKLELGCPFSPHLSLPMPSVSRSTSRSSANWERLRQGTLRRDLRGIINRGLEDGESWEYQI

[2] = target: T1, human TRPV6b expressed in LnCaP cells …; assay: cell-based or functional assay

KEFLHPSKVDLPR (modifications not checked) [SorC13]
Kd [1]: 0.1 µM | inhibition constant of calcium current (whole-cell patch clamp) [2]: 100 nM

EGKLSSNDTEGGLCKEFLHPSKVDLPR (modifications not checked) [SorC27]
Kd [1]: 0.14 µM | inhibition constant of calcium current (whole-cell patch clamp) [2]: 100 nM
